# According to patent US8168587B2, “Combination enzyme replacement and small molecule therapy for treatment of lysosomal storage diseases” (Genezyme Corporation, priority 2000, dated 2012):
# B1: α-galactosidase A: lysosomal enzyme deficient in Fabry disease, given as a single intravenous infusion for enzyme replacement (protein, UniProt P06280 32-429, looked up)
# Alpha-galactosidase A: LDNGLARTPTMGWLHWERFMCNLDCQEEPDSCISEKLFMEMAELMVSEGWKDAGYEYLCIDDCWMAPQRDSEGRLQADPQRFPHGIRQLANYVHSKGLKLGIYADVGNKTCAGFPGSFGYYDIDAQTFADWGVDLLKFDGCYCDSLENLADGYKHMSLALNRTGRSIVYSCEWPLYMWPFQKPNYTEIRQYCNHWRNFADIDDSWKSIKSILDWTSFNQERIVDVAGPGGWNDPDMLVIGNFGLSWNQQVTQMALWAIMAAPLFMSNDLRHISPQAKALLQDKDVIAINQDPLGKQGYQLRQGDNFEVWERPLSGLAWAVAMINRQEIGGPRSYTIAVASLGKGVACNPACFITQLLPVKRKLGFYEWTSRLRSHINPTGTVLLQLENTMQMSLKDLL
# Tested on: Fabry mice
# Assay: Sequential enzyme replacement then small molecule therapy: GB3 re-accumulation in Fabry mouse liver
# Description: In vivo efficacy of combination enzyme replacement therapy plus small molecule therapy in Fabry disease. […] Study protocol for sequential combination of enzyme (α-galactosidase A) replacement followed by small molecule administration (NB-DNJ, AMP-DNJ or D-t-et-P4) on globotriaosylceramide (GB3) re-accumulation in Fabry mice. […] Results of study protocol for Fabry mouse liver tissue. GB3 re-accumulation at four weeks (μg GB3 per gm liver tissue) is plotted on the ordinate versus absence of small molecule treatment (Vehicle) or daily intra-peritoneal small molecule therapy with D-t-et-P4 (at either 5 mg/kg or 0.5 mg/kg), NB-DNJ (at 500 mg/kg), or AMP-DNJ (at 100 mg/kg).
# Fabry mice were used to test the in vivo efficacy of combining enzyme replacement therapy with small molecule therapy in a sequential treatment format (FIG. 1). The study was designed to evaluate whether substrate inhibition (i.e. “substrate deprivation therapy”) using small molecules of the DNJ and P4 types could reduce re-accumulation of the storage material globotriaosylceramide (GB3). The study protocol (FIG. 1A) called for a single infusion of α-galactosidase A enzyme to reduce GB3 levels (measured at two weeks) to a “Baseline” level in Fabry mouse liver. GB3 re-accumulation was then measured at four weeks in control mice receiving no small molecule therapy (“Vehicle”) and in mice receiving various small molecules at various doses. Accordingly, two weeks after GB3 levels were reduced to a “Baseline” level of about 0.1 μg/g liver (FIG. 1B), a small molecule or vehicle was administered by intra-peritoneal (IP) injection.
Molecule,"GB3 re-accumulation in Fabry mouse liver tissue (5 mg/kg daily IP after single α-galactosidase A infusion, four week time point, vehicle about 0.8, baseline about 0.1)",Baseline GB3 level in Fabry mouse liver (two weeks after a single infusion of α-galactosidase A enzyme),Baseline GB3 level in Fabry mouse liver (two weeks after a single α-galactosidase A intravenous infusion)
"D-threo-1-(3′,4′-ethylenedioxy)phenyl-2-palmitoylamino-3-pyrrolidino-1-propanol [D-t-et-P4, reference compound]",less than 0.4 μg/gm,–,–
B1,–,about 0.1 μg/g liver,about 0.1 μg/gm liver tissue
